Laboratory results as given in US20050250143.

System: Myc-tagged MIF1/MSP58 protein (plasmid pCM562), expressed in CHO stable clone #34
Sequence (chain, as listed by the source): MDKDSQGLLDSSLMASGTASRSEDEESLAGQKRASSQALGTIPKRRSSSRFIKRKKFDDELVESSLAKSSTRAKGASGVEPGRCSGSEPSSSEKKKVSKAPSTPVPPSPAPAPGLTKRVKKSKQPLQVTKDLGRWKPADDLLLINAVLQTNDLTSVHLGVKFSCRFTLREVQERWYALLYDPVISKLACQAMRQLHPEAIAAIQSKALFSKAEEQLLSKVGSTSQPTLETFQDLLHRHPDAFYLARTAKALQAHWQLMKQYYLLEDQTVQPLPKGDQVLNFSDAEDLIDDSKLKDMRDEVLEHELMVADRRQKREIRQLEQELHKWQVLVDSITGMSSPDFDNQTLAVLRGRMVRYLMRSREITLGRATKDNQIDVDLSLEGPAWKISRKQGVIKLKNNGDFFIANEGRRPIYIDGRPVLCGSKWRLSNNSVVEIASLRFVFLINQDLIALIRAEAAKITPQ

## MEKK1 of CHO cells (cellular, activated by sorbitol)
  JNK activation (in vitro GST-Jun(1-223) phosphorylation) after 200 mM sorbitol, CHOMIF1 #34 against CHOpCDNA3: Cells expressing MIF1 showed an inhibition of JNK activation (revelated by weak GST-JUNphosphorylation) in response to sorbitol incubation
